From the nanobody polyreactivity screen of Harvey et al. (2022)

Assay: yeast display, Sf9 membrane polyspecificity reagent, FACS + sequencing; frameworks hold sequencing errors
How it was run: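 Polyreactivity labels are assigned by the sorting gate from which each nanobody was recovered. The gates were low and high (top ~1%), set on anti-HA fluorescence for expression and streptavidin fluorescence for reagent binding. Before sorting, galactose-induced (36–48 hours) yeast display cells were stained for 1 hour at 4 °C with 10% biotinylated, detergent-solubilized Sf9 membrane reagent.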

| Sequence | polyreactivity (PSR sort gate) |
| --- | --- |
| QVQLVESGGGLVQAGGSLRLSCAASGSTFTPYAMGWYRQAPAKERELVAAITSGGPTNYADSVKGRFTISRDNAKNTVYLQMNSLKPEDTAVYYCNAEYLYWWEIYDYWGQGNQVTVSS | high polyreactivity |
| QVQLVESGGGLVQAGGSLRLSCAASGFTFGVYAMGWYRQAPGKERELVAAISVSGGRTYYADSVKGRFTISRDNAKNTVYLQMNSLKPEDTAVYYCAADLGLKTSSRRTSMYYWGQGTQVTVSS | high polyreactivity |
| QVQLVESGGGLVQAGGSLRLSCAASGFTFNANAMGWYRQAPGKERELVAFITRSGGRTYYADSVKGRFTISRDNAKNTVYLQMNSLKPEDTAVYYCAKEGPSRVYQGTDSASDYWGQGTQVTVSS | high polyreactivity |
| QVQLVESGGGLVQEGGSLRLICAASGRTFYINDMGWYRQAPGKEREFVAAITWSGGSTYYADSVKGRFTISRDNAKNTVYLQMNSLKPEDTAVYYCARPYRGSPRYYYWGQGTQVTVSS | high polyreactivity |
| QVQLVESGGGLVQAGGRLRLSCAASGSIIHYYTMGWSRQAPGKERELVAAINWSGTRTYYADSVKGRFTISRDNAKNTVYLQMNSLKPEDTAVYYCAAESYYPAGIRVYWGQGTQVTVSS | high polyreactivity |
| QVQLVESGGGLVQAGGSLRLSCAASGRTFYYAMGWYRQAPGKERELVASITWSGGITTYADSVKGRFTISRDNAKNTVYLQMNSLKPEDTAVYSCAAQVIKGRTYQLGDYWGQGTQVTVSS | high polyreactivity |
| QVQLVESGGGIVQAGGSLRLSCADSGITFKYYAMGWYRQAPGKERQWVAAISRSGGSTYYADSVKGRFTISRDNAKNTVYLQMNSLIAEDTAVYYCNAELYSVYLGFGYWGQGTQVTVSS | high polyreactivity |
| QVQLVESGGGLVQAGGSLRLSCAASGLTFVFYAMGWYRQAPGKETELVAAISSSGGSTNYADSVKGRFTISRDNEKNTVYLQMKSLKPEDTAVYYCAATPYYSQYDYWGQGTQVTVSS | high polyreactivity |
| QDQHVESGGGLVQAGGSLRLSCAASGSTFHLYAMGWYRQAPGKERELVATITWRTGSTYYADSVKGRFTISRDNAKNTVYLQMNSLKPEDTAVYYCAAYPYRYSWLDYWGQGTQVTVSS | high polyreactivity |
| QVQLVESGGGLVQAGGSLRLSCAASGITLDVNAMGWYRQAPGKERELVADITWSDDTTYYADSVKGRFTISRDNAKNTVYLQMNSLKPEDTAVYYCAADVSVSFHPRGYDYWGQGTQVTVSS | low polyreactivity |
| QVQLVESGGGLDQAGGSLRLSCAASGFTFAVYAMGWYRQAPAKERELVAAISRSGTRTYYADSVKGRFTISRDNAKNTVYLQMNSLKREDNAVYYCAADNYRHGYEYWGLGTQVTVSS | high polyreactivity |
| QVQLVESGGGLVQAGGSLRLSCAASGLTSGYYAMGWYRQAPGKEREFVAAITWRSGSTYYADSVKGRFTISRDNAKNTVYLQMNSLKPEDTAVYYCAAVSVIYHGHNRSTYEYWGQGTQVTVSS | high polyreactivity |
| QVQLVESGGRLVQAGGSLRLSCAASGFIFAYNAMGWYRQAPGKERELVAAISWSGGSTYYADSVKGRFTISRDNAKNTVYLQMNSLKPEDTAVSYCNKYIRYPFKRYGYWGQGTQVTVSS | high polyreactivity |
| QVQLVESGGGLVQAGGSLRLSCAASGSIFLDNAMGWYRPAPGKERELVAAISRRGGTTYYADSVKGRFTISRDNAKNTVYLQLNSLIPEDTAVYYCAARYPGGKYYSYTYNYWGQGTQVTVSS | high polyreactivity |
| QVQLVESGGGLVQAGGSLRLSCAASGRTFRLYAMGWYRQAPGKERELVAAIRSGGSTNYADSVKGRFTISRDNAKNTVYLQMNSLKPEDTAVYYCAVDGYFFQGPYYYWGQGTQVTVSS | low polyreactivity |
| QVQLVESGGGLVQAGGSLRLSCAASGSTFYVYAMGWYRQAPGTERELVAAIDYSDGSTYYADSVKGRFTISRDNAKNTVYLQMNSRKPEDTAVYYCAADTVSWFEYYYWGQGTQVTVSS | high polyreactivity |
| QVQLEESGGGLVQAGGSLRLSCAASGFTFYLYTMGWYRQAPGKERELVAAISRSGDRTYYADSVKGRFSISRDNAKNTVYLQMNSLKPEDTAVYYCAARSYRPTRGDYWGQGTQVTVSS | high polyreactivity |
| QDQLVESGGGLVQAGGRRRLSCAASGSIFGGYSMGWYRQAPGKERELVAAISRRGGNTYYADSVKGRFTISGDNAKNTVYLQMNSLKPDDTAVYYCAVRWPSARIPVKLDYWVQGTQVTVSS | high polyreactivity |
| QLQLVESGGGLVQAGGSLRLSCAPSGYTFYLYAMGWYRQAPGKARELDAAISNRGGSTYYADSVKGRFTISRDNAKNTVYLQMKSLKPEDTAFYYCAATVGKAGGRYYDRRYYWGQGTQVTVSS | high polyreactivity |
| QVQLVESGGGLVQAGGSLRLSCAASGRIFFLYAMGWYRQAPGKERELVASITRRGGSTYYADSVKGRVTISRDNAKNTVYLQMTSLKPEDTAVYYCAAELYRSNVYHYDYWGQGTQVTVSS | high polyreactivity |
| QVQLVESGGGLVQAGGSLRLSCAASGFIFQRYAMGWYRPAPGKERELVAAISWSGGSTSYADSVKGRFTISRDNAKNPVYLQMYSLKPVDTAVYYCAARRPVYRKYGDRGRWYNYWGQGTQVTVSS | high polyreactivity |
